# Assay results: publication PMC10213043, “Different viral effectors suppress hormone-mediated antiviral immunity of rice coordinated by OsNPR1” (Nature Communications, 2023)
# B1: GST-OsNPR1 (natural protein)
# chain: MEPPTSHVTNAFSDSDSASVEEGGADADADVEALRRLSDNLAAAFRSPEDFAFLADARIAVPGGGGGGGDLLVHRCVLSARSPFLRGVFARRAAAAAGGGGEDGGERLELRELLGGGGEEVEVGYEALRLVLDYLYSGRVGDLPKAACLCVDEDCAHVGCHPAVAFMAQVLFAASTFQVAELTNLFQRRLLDVLDKVEVDNLLLILSVANLCNKSCMKLLERCLDMVVRSNLDMITLEKSLPPDVIKQIIDARLSLGLISPENKGFPNKHVRRIHRALDSDDVELVRMLLTEGQTNLDDAFALHYAVEHCDSKITTELLDLALADVNHRNPRGYTVLHIAARRREPKIIVSLLTKGARPADVTFDGRKAVQISKRLTKQGDYFGVTEEGKPSPKDRLCIEILEQAERRDPQLGEASVSLAMAGESLRGRLLYLENRVALARIMFPMEARVAMDIAQVDGTLEFNLGSGANPPPERQRTTVDLNESPFIMKEEHLARMTALSKTVELGKRFFPRCSNVLDKIMDDETDPVSLGRDTSAEKRKRFHDLQDVLQKAFHEDKEENDRSGLSSSSSSTSIGAIRPRR
# notes: also called second copy in the self-association pull-down: MBP-HIS-OsNPR1; MBP-OsNPR1; source: E. coli Rosetta (DE3), purified
# Molecular target: the molecule itself
# Assay: pull-down; purified proteins, 5 µg GST-OsNPR1 with 5 µg MBP-HIS-OsNPR1 or 5 µg MBP-HIS-OsCUL3a, plus 1 or 10 µg MBP-HIS-P2 (or 10 µg MBP-HIS); held on glutathione sepharose beads, 4 °C, 2 h, washed with 1x PBS
protein,measurement,value
B1,binding result,binds
